Results taken from publication PMC4220118, “Exploring nicotinamide cofactor promiscuity in NAD(P)H-dependent flavin containing monooxygenases (FMOs) using natural variation within the phosphate binding loop. Structure and activity of FMOs from Cellvibrio sp. BR and Pseudomonas stutzeri NF13” (Journal of Molecular Catalysis. B, Enzymatic, 2014).

Columns and labels:
PSFMO = molecular target: T1, PSFMO (Stutzerimonas stutzeri, UniProt M2V3J0); assay: X-ray crystal structure, […] Å; type: binding; conditions: oxidised FAD; co-purified; tag-cleaved protein
T1 construct: gene B381_09411; 358 aa; codon-optimised gene in pET-YSBL-LIC-3C, N-terminal 3C-cleavable His6 tag (crystals: tag cleaved, linker Gly-2 Pro-1 Ala0 seen), E. coli BL21(DE3)
T1 sequence (M2V3J0 1-358): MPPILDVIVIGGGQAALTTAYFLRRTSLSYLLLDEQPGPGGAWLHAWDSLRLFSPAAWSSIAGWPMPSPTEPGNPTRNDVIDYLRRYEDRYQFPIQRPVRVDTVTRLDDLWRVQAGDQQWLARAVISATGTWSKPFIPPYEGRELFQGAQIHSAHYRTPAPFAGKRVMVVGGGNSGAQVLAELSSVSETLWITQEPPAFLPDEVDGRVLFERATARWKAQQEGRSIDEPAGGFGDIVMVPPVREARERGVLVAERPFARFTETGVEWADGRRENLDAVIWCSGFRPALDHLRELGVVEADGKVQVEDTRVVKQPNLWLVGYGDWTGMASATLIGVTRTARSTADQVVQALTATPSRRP

CFMO = molecular target: T2, CFMO (Cellvibrio sp. BR, UniProt I3IEE4); assay: X-ray crystal structure, […] Å; type: binding; conditions: oxidised FAD at domain interface; co-purified; non-cleaved His-tagged protein
T2 construct: gene O59_000450; 361 aa; codon-optimised gene in pET-YSBL-LIC-3C, N-terminal 3C-cleavable His6 tag (crystals: non-cleaved protein), E. coli BL21(DE3); dimer
T2 sequence (I3IEE4 1-361): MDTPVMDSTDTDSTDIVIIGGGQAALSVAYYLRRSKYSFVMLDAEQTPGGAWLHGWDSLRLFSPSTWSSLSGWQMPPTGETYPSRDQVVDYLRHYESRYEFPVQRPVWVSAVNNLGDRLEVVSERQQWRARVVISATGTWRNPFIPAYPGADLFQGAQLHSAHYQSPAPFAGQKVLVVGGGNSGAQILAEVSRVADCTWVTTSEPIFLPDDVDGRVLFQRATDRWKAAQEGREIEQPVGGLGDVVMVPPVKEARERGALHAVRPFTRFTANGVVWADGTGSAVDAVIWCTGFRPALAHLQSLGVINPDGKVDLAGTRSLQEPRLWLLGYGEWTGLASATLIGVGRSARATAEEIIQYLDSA

purified protein [1] = substrate: NC(=O)C1=CN([C@@H]2O[C@H](COP(=O)(O)OP(=O)(O)OC[C@H]3O[C@@H](n4cnc5c(N)ncnc54)[C@H](O)[C@@H]3O)[C@@H](O)[C@H]2O)C=CC1; assay: purified protein; type: biochemical, Cellvibrio sp. BR; conditions: Tris-HCl pH 7.5, 3.9 nmol enzyme in 1 mL, NADH 10-100 μM
purified protein [2] = substrate: NC(=O)C1=CN([C@@H]2O[C@H](COP(=O)(O)OP(=O)(O)OC[C@H]3O[C@@H](n4cnc5c(N)ncnc54)[C@H](OP(=O)(O)O)[C@@H]3O)[C@@H](O)[C@H]2O)C=CC1; assay: purified protein; type: biochemical, Cellvibrio sp. BR; conditions: Tris-HCl pH 7.5, 3.9 nmol enzyme in 1 mL, NADPH 10-100 μM
purified protein [3] = substrate: NC(=O)C1=CN([C@@H]2O[C@H](COP(=O)(O)OP(=O)(O)OC[C@H]3O[C@@H](n4cnc5c(N)ncnc54)[C@H](O)[C@@H]3O)[C@@H](O)[C@H]2O)C=CC1; assay: purified protein; type: biochemical, Stutzerimonas stutzeri; conditions: Tris-HCl pH 7.5, 3.9 nmol enzyme in 1 mL, NADH 10-100 μM
purified protein [4] = substrate: NC(=O)C1=CN([C@@H]2O[C@H](COP(=O)(O)OP(=O)(O)OC[C@H]3O[C@@H](n4cnc5c(N)ncnc54)[C@H](OP(=O)(O)O)[C@@H]3O)[C@@H](O)[C@H]2O)C=CC1; assay: purified protein; type: biochemical, Stutzerimonas stutzeri; conditions: Tris-HCl pH 7.5, 3.9 nmol enzyme in 1 mL, NADPH 10-100 μM
[5] = molecular target: the molecule itself; assay: SEC; size-exclusion studies of PSFMO (not shown)

Cc1cc2nc3c(=O)[nH]c(=O)nc-3n(C[C@H](O)[C@H](O)[C@H](O)COP(=O)(O)OP(=O)(O)OC[C@H]3O[C@@H](n4cnc5c(N)ncnc54)[C@H](O)[C@@H]3O)c2cc1C [FAD]
X-ray crystal structure, 1.83 Å (PSFMO): FAD was again clearly visible in the omit map after building and refinement | X-ray crystal structure, 2.39 Å (CFMO): This was successfully modelled and refined as FAD in the flat, oxidised form

B1: CFMO (Cellvibrio sp. BR) (protein)
chain: MDTPVMDSTDTDSTDIVIIGGGQAALSVAYYLRRSKYSFVMLDAEQTPGGAWLHGWDSLRLFSPSTWSSLSGWQMPPTGETYPSRDQVVDYLRHYESRYEFPVQRPVWVSAVNNLGDRLEVVSERQQWRARVVISATGTWRNPFIPAYPGADLFQGAQLHSAHYQSPAPFAGQKVLVVGGGNSGAQILAEVSRVADCTWVTTSEPIFLPDDVDGRVLFQRATDRWKAAQEGREIEQPVGGLGDVVMVPPVKEARERGALHAVRPFTRFTANGVVWADGTGSAVDAVIWCTGFRPALAHLQSLGVINPDGKVDLAGTRSLQEPRLWLLGYGEWTGLASATLIGVGRSARATAEEIIQYLDSA
notes: 361 aa; codon-optimised gene in pET-YSBL-LIC-3C, N-terminal 3C-cleavable His6 tag (crystals: non-cleaved protein), E. coli BL21(DE3); dimer
Km (purified protein [1]): 3 ± 1 µM | kcat (purified protein [1]): 0.02 s⁻¹ | kcat/Km (purified protein [1]): 6670 M⁻¹ s⁻¹ | Km (purified protein [2]): 5 ± 1 µM | kcat (purified protein [2]): 0.02 s⁻¹ | kcat/Km (purified protein [2]): 4000 M⁻¹ s⁻¹

B2: Flavin-containing monooxygenase from Pseudomonas stutzeri NF13 (PSFMO), as used in size-exclusion studies (enzyme, UniProt M2V3J0 1-358, looked up)
chain: MPPILDVIVIGGGQAALTTAYFLRRTSLSYLLLDEQPGPGGAWLHAWDSLRLFSPAAWSSIAGWPMPSPTEPGNPTRNDVIDYLRRYEDRYQFPIQRPVRVDTVTRLDDLWRVQAGDQQWLARAVISATGTWSKPFIPPYEGRELFQGAQIHSAHYRTPAPFAGKRVMVVGGGNSGAQVLAELSSVSETLWITQEPPAFLPDEVDGRVLFERATARWKAQQEGRSIDEPAGGFGDIVMVPPVREARERGVLVAERPFARFTETGVEWADGRRENLDAVIWCSGFRPALDHLRELGVVEADGKVQVEDTRVVKQPNLWLVGYGDWTGMASATLIGVTRTARSTADQVVQALTATPSRRP
notes: PSFMO, putative FMO from Pseudomonas stutzeri NF13, Uniprot M2V3J0, 358 amino acids; synthetic gene amplified with primers from the ATG start codon to the stop codon; Same construct as m2
Km (purified protein [3]): 16 ± 2 µM | kcat (purified protein [3]): 0.03 s⁻¹ | kcat/Km (purified protein [3]): 1880 M⁻¹ s⁻¹ | Km (purified protein [4]): 17 ± 2.0 µM | kcat (purified protein [4]): 0.04 s⁻¹ | kcat/Km (purified protein [4]): 2350 M⁻¹ s⁻¹ | stoichiometry N [5]: 2
